Target: integrin α2β1 on human platelets (human (endogenous in platelets)) (UniProt P17301)
Test: flow cytometry on cells

Chain of UniProt P17301 (P17301 30-1181, chain 1 of 2): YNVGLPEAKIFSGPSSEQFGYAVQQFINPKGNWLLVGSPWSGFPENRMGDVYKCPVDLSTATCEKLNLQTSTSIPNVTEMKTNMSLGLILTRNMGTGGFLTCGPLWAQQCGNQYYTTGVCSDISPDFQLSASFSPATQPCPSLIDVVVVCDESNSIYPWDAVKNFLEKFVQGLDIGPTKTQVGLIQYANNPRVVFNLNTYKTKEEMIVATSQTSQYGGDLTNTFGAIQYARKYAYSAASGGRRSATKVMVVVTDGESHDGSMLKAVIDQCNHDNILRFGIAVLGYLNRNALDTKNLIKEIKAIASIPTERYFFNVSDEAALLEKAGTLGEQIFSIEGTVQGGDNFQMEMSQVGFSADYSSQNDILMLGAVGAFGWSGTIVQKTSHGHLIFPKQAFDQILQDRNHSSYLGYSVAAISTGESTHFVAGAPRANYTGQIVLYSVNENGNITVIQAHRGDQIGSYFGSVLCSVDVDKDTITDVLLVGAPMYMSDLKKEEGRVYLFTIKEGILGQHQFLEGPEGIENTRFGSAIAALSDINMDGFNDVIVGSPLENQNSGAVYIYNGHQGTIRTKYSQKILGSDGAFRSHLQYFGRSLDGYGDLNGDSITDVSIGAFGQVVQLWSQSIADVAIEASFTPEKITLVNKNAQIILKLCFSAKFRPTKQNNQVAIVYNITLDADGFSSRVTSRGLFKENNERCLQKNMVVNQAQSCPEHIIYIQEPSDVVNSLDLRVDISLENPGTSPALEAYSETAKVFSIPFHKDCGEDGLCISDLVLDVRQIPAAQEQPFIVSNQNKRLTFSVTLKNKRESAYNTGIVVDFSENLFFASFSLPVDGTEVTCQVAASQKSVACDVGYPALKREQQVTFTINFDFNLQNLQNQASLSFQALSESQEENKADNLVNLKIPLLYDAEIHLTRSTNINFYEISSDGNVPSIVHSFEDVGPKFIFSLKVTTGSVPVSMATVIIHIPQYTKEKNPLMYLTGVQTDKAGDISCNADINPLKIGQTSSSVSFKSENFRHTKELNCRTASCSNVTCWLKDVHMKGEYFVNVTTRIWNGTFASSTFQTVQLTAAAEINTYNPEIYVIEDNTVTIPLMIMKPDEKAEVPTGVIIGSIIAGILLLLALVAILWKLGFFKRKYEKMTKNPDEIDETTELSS
Chain of UniProt P17301 (P05556 21-798, chain 2 of 2, further chain): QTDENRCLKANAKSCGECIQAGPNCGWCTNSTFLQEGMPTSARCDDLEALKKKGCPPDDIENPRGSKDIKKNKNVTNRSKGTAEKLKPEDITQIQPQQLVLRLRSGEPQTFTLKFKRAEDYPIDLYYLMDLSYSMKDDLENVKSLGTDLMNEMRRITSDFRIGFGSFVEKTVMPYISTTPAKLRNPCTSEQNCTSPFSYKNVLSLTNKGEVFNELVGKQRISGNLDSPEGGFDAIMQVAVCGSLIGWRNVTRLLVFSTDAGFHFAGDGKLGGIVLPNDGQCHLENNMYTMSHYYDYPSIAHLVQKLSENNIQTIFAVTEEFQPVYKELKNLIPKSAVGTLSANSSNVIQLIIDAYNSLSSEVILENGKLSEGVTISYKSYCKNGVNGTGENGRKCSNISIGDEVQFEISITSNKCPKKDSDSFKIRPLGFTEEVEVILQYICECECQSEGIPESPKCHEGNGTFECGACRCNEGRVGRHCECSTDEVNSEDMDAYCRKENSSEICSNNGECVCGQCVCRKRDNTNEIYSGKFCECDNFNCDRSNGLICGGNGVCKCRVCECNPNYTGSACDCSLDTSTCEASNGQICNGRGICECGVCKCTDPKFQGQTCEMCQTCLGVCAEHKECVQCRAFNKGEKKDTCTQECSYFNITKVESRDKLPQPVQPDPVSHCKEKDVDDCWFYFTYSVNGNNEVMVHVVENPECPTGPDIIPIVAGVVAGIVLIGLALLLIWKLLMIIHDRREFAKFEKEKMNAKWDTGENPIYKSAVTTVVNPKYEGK

Rhinocetin (heterodimeric snaclec from the venom of Bitis gabonica rhinoceros) (complex)
percent inhibition of 6F1 antibody binding at 50 μg/ml: 65%
percent inhibition of 6F1 antibody binding at 100 μg/ml: 90%

From article PMC3406708
